From doi:10.1101/720318 (bioRxiv, 2019)

B1: D1min W293A (peptide)
peptide: APQAMLPLLLGLY
modifications: N-terminal acetyl, C-terminal amide (Ac-APQAMLPLLLGLY-NH2, printed for the NMR samples)

Biological target: BKV serotype 1 VP1 (30-297) pentamer (BK polyomavirus)
Experiment: AlphaScreen or HTRF

Binder	binding result
APQWMLPALLGLY [D1min L297A]	binds
APQWMLPLALGLY [D1min L298A]	binds
B1	binds
